Numbering of substitutions follows the chain as printed. Values belong to the binder of their own block, whether it stands above or below them.
How the values were obtained:
[1] = target: T1, rHuman IGF-1 sR (IGF-1 sR), CF (R&D Systems Cat#391-GR) (human, UniProt P08069 31-932); test: MSD ECL multi-spot plate, antigen immobilized; Fab 1.6 nM; blank spot 449
T1 construct: Purchased soluble receptor; also called insulin-like growth factor-1 soluble receptor; IGF-R1

[2] = target: T2, rHuman Erythropoietin R/Fc Chimera, CF (R&D Systems Cat#963-ER) (human, UniProt P19235 25-250); test: as above
T2 construct: Purchased Fc chimera; also called EPO R/Fc; Epo R; not shown: Fc portion of the purchased chimera
T2 sequence: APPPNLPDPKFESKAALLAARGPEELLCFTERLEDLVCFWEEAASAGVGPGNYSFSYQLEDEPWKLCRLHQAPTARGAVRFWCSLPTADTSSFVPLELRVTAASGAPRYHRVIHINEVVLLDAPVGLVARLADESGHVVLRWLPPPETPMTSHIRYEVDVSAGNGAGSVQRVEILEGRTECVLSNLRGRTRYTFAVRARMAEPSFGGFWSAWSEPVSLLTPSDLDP

[3] = target: T3, rHuman ErbB2/Fc Chimera, CF (R&D Systems Cat#1129-ER) (human, UniProt P04626 23-652); test: as above
T3 construct: Purchased Fc chimera; also called HER2/neu; not shown: Fc portion of the purchased chimera

[4] = target: T4, rHuman EGF R/Fc Chimera, CF (R&D Systems Cat#344-ER) (human, UniProt P00533 25-645); test: as above
T4 construct: Purchased Fc chimera; not shown: Fc portion of the purchased chimera

[5] = target: T5, rHuman HGF R/c-MET/Fc Chimera, CF (R&D Systems Cat#358-MT/CF) (human, UniProt P08581 25-932); test: as above
T5 construct: Purchased Fc chimera; also called HGF R/Fc; not shown: Fc portion of the purchased chimera

[6] = target: T6, rHuman Notch-1/Fc Chimera, CF (R&D Systems Cat#3647-TK) (human, UniProt P46531 19-526); test: as above
T6 construct: Purchased Fc chimera; not shown: Fc portion of the purchased chimera

[7] = target: T7, rHuman CD44/Fc Chimera, CF (R&D Systems Cat#3660-CD) (human, UniProt P16070 21-220); test: as above
T7 construct: Purchased Fc chimera; not shown: Fc portion of the purchased chimera

[8] = target: T8, rHuman Notch-1/Fc Chimera, CF (R&D Systems Cat#3647-TK) (human, UniProt P46531 19-526); test: MSD ECL multi-spot, Fab 0.14 uM, blank 237
T8 construct: Bought Fc chimera; Fc part of the bought chimera not given

[9] = target: T9, rHuman CD44/Fc Chimera, CF (R&D Systems Cat#3660-CD) (human, UniProt P16070 21-220); test: MSD ECL multi-spot, Fab 0.14 uM, blank 237
T9 construct: Bought Fc chimera; Fc part of the bought chimera not given

[10] = target: T10, rHuman IGF-1 sR (insulin-like growth factor-1 soluble receptor), CF (R&D Systems Cat#391-GR) (human, UniProt P08069 31-932); test: MSD ECL multi-spot, Fab 0.14 uM, blank 237
T10 construct: Bought soluble receptor; also called IGF-R1

[11] = target: T11, rHuman P-Cadherin/Fc Chimera, CF (R&D Systems Cat#861-PC) (human, UniProt P22223 108-654); test: MSD ECL multi-spot, Fab 0.14 uM, blank 237
T11 construct: Bought Fc chimera; Fc part of the bought chimera not given

[12] = target: T12, rHuman Erythropoietin R/Fc Chimera, CF (R&D Systems Cat#963-ER) (human, UniProt P19235 25-250); test: MSD ECL multi-spot, Fab 0.14 uM, blank 237
T12 construct: Bought Fc chimera; also called EPO R/Fc; EPOR; Fc part of the bought chimera not given
T12 sequence: T2 sequence

[13] = target: T13, Recombinant Human DLL4 (R&D Systems Cat#1506-D4/CF) (human, UniProt Q9NR61 27-524); test: MSD ECL multi-spot, Fab 0.14 uM, blank 237
T13 construct: Bought recombinant protein; also called rHuman DLL4; delta-like protein 4

[14] = target: T14, rHuman ErbB2/Fc Chimera, CF (R&D Systems Cat#1129-ER) (human, UniProt P04626 23-652); test: MSD ECL multi-spot, Fab 0.14 uM, blank 237
T14 construct: Bought Fc chimera; also called HER2/neu; Fc part of the bought chimera not given

[15] = target: T15, rHuman EGF R/Fc Chimera, CF (R&D Systems Cat#344-ER) (human, UniProt P00533 25-645); test: MSD ECL multi-spot, Fab 0.14 uM, blank 237
T15 construct: Bought Fc chimera; Fc part of the bought chimera not given

[16] = target: T16, rHuman HGF R/c-MET/Fc Chimera, CF (R&D Systems Cat#358-MT/CF) (human, UniProt P08581 25-932); test: MSD ECL multi-spot, Fab 0.14 uM, blank 237
T16 construct: Bought Fc chimera; also called HGF R/Fc; Fc part of the bought chimera not given

[17] = target: T17, rHuman EGF R/Fc Chimera, CF (R&D Systems Cat#344-ER) (human, UniProt P00533 25-645); test: ECL (MSD multi-spot), antigen on plate, Fab 50 nM
T17 construct: Bought Fc chimera; also called ErbB-1; not shown: Fc of the bought chimera

[18] = target: T18, rHuman HGF R/c-MET/Fc Chimera, CF (R&D Systems Cat#358-MT/CF) (human, UniProt P08581 25-932); test: ECL (MSD multi-spot), antigen on plate, Fab 50 nM
T18 construct: Bought Fc chimera; also called HGF R/Fc; not shown: Fc of the bought chimera

[19] = target: T19, rHuman CD44/Fc Chimera, CF (R&D Systems Cat#3660-CD) (human, UniProt P16070 21-220); test: ECL (MSD multi-spot), antigen on plate, Fab 50 nM
T19 construct: Bought Fc chimera; not shown: Fc of the bought chimera
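Also: blank spot per well as comparator with Hit at signal to blank ratio of 4 or more.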

ECL signal [1]: 1330 ECL signal | ECL signal [2]: 920 ECL signal | ECL signal [3]: 1440 ECL signal | ECL signal [4]: 1200 ECL signal | ECL signal [5]: 1210 ECL signal | ECL signal [6]: 1050 ECL signal | ECL signal [7]: 997 ECL signal
B1: Fab VH5-51_IGHD5-18*01>3_IGHJ4*01_G100R & V3-4_IGLJ1*01 (Fab, V domains shown)
VH: EVQLVQSGAEVKKPGESLKISCKGSGYSFTSYWIGWVRQMPGKGLEWMGIIYPGDSDTRYSPSFQGQVTISADKSISTAYLQWSSLKASDTAMYYCARRRYSYGYDYFDYWGQGTLVTVSS
VL: QTVVTQEPSFSVSPGGTVTLTCGLSSGSVSTSYYPSWYQQTPGQAPRTLIYSTNTRSSGVPDRFSGSILGNKAALTITGAQADDESDYYCVLYMGSGISYVFGTGTKVTVL
notes: It was expressed as a Fab: CH1 with tags from Plasmid A and lambda CL from Plasmid E; also called Fab No. 23

ECL signal [8]: 614 | ECL signal [9]: 515 | ECL signal [10]: 663 | ECL signal [11]: 423 | ECL signal [12]: 693 | ECL signal [13]: 19300 | ECL signal [14]: 870 | ECL signal [15]: 823 | ECL signal [16]: 848
B2: Fab VH1-46_IGHD6-6*01_IGHJ1*01 & L6_IGKJ1*01 (Fab, V domains shown)
VH: QVQLVQSGAEVKKPGASVKVSCKASGYTFTSYYMHWVRQAPGQGLEWMGIINPSGGSTSYAQKFQGRVTMTRDTSTSTVYMELSSLRSEDTAVYYCAREEYSSSSAEYFQHWGQGTLVTVSS
VL: not shown
notes: Expressed in E. coli as Fab: heavy chain with CH1 plus Flag and His tags from Plasmid A, kappa light chain constant region from Plasmid C; also called Fab No. 1

ECL signal [17]: 328 ECL signal | ECL signal [18]: 183 ECL signal | ECL signal [19]: 340 ECL signal
B3: Fab VH1-46_IGHD6-6*01_IGHJ1*01_S102A_S103P_S104F & L6_IGKJ1*01_S28P (Fab, V domains shown)
VH: B2 VH with S102A, S103P, S104F
VL: EIVLTQSPATLSLSPGERATLSCRASQPVSSYLAWYQQKPGQAPRLLIYDASNRATGIPARFSGSGSGTDFTLTISSLEPEDFAVYYCQQRSNWPPWTFGQGTKVEIKR
notes: Fab

Source: patent US20120058906A1 (published 2012)
